In this test the target is T1, MBP-Rng2-1306-end (fission yeast, UniProt O14188 1306-1489).
T1 sequence (looked up): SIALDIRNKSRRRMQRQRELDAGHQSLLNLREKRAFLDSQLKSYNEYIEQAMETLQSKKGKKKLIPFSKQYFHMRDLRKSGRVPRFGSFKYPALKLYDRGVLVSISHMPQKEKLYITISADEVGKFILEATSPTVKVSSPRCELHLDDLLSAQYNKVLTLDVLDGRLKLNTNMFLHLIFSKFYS
The experiment in a line: pull-down.

B1: GST-Mid1 1–100 (domain or fragment, fission yeast, UniProt P78953 1-100, looked up)
chain: MKEQEFSYREAKDVSLDSKGLENSFLSSPNREKTPLFFEGNSNETSGYDQTKNFTHGDGDMSLGNLSELNVATDLLESLDLRSMYMHGYGHLDSSFSSQH
As to B1, the binding result is on record as “binds”.

The values above are taken from article PMC3088474 (Current biology : CB, 2011).
